Assay results as given in publication PMC5892938, “SARNAclust: Semi-automatic detection of RNA protein binding motifs from immunoprecipitation data”.

B1: consensus (structured_RNA)
RNA: GGUCACGUCUCAAUCAACUCCCAAAGGCCCUUUUCAGGGCCACCCAUCAACAGCUCGCAGUCAAG
B2: consensus (structured_RNA)
RNA: GGUCACGUCUCAAUCAACUCCCAAAGGCUUUUCUCAGAGCCACCCAUCAACAGCUCGCAGUCAAG
B3: consensus (structured_RNA)
RNA: GGUCACGUCUCAAUCAACUCCCAAAGGCUUUUUUCAGAGCCACCCAUCAACAGCUCGCAGUCAAG
B4: consensus (structured_RNA)
RNA: GGUCACGUCUCAAUCAACUCCCAAAGGCUUUUUUUAGGGCCACCCAUCAACAGCUCGCAGUCAAG
B5: consensus (structured_RNA)
RNA: GGUCACGUCUCAAUCAACUCCCAAAGGUCUUUCUCAGGGCCACCCAUCAACAGCUCGCAGUCAAG
B6: consensus (structured_RNA)
RNA: GGUCACGUCUCAAUCAACUCCCAAAGGCUUUUUUCAGGGCCACCCAUCAACAGCUCGCAGUCAAG
B7: consensus (structured_RNA)
RNA: GGUCACGUCUCAAUCAACUCCCAAAGGUCCUUUUAAGGACCACCCAUCAACAGCUCGCAGUCAAG
B8: consensus (structured_RNA)
RNA: GGUCACGUCUCAAUCAACUCCCAAAGGUUUUUCUCAAAGCCACCCAUCAACAGCUCGCAGUCAAG
B9: consensus (structured_RNA)
RNA: GGUCACGUCUCAAUCAACUCCCAAAGGCCUUUUUUAGGGCCACCCAUCAACAGCUCGCAGUCAAG
B10: consensus (structured_RNA)
RNA: GGUCACGUCUCAAUCAACUCCCAAAGGCCUUUUUAAGGGCCACCCAUCAACAGCUCGCAGUCAAG
B11: consensus (structured_RNA)
RNA: GGUCACGUCUCAAUCAACUCCCAAAGGUUUUUUUGAAAGCCACCCAUCAACAGCUCGCAGUCAAG
B12: consensus (structured_RNA)
RNA: GGUCACGUCUCAAUCAACUCCCAAAGGUUUUUUUGAAAACCACCCAUCAACAGCUCGCAGUCAAG
B13: consensus (structured_RNA)
RNA: GGUCACGUCUCAAUCAACUCCCAAAGGUUUUUCUUAAAGCCACCCAUCAACAGCUCGCAGUCAAG
B14: consensus (structured_RNA)
RNA: GGUCACGUCUCAAUCAACUCCCAAAGGCUUUUCUAAGAGCCACCCAUCAACAGCUCGCAGUCAAG
B15: consensus (structured_RNA)
RNA: GGUCACGUCUCAAUCAACUCCCAAAGGUUCUUCUUAGAGCCACCCAUCAACAGCUCGCAGUCAAG
B16: consensus (structured_RNA)
RNA: GGUCACGUCUCAAUCAACUCCCAAAGGUCCUUCUGAGGGCCACCCAUCAACAGCUCGCAGUCAAG
B17: consensus (structured_RNA)
RNA: GGUCACGUCUCAAUCAACUCCCAAAGGCUUUUUUAAGAGCCACCCAUCAACAGCUCGCAGUCAAG
B18: consensus (structured_RNA)
RNA: GGUCACGUCUCAAUCAACUCCCAAAGGUCUUUUUUAGGACCACCCAUCAACAGCUCGCAGUCAAG
B19: consensus (structured_RNA)
RNA: GGUCACGUCUCAAUCAACUCCCAAAGGUCUUUUUAAGGGCCACCCAUCAACAGCUCGCAGUCAAG
B20: consensus (structured_RNA)
RNA: GGUCACGUCUCAAUCAACUCCCAAAGGCUUUUUUAAGGGCCACCCAUCAACAGCUCGCAGUCAAG
B21: consensus (structured_RNA)
RNA: GGUCACGUCUCAAUCAACUCCCAAAGGUCUUUCUAAGGGCCACCCAUCAACAGCUCGCAGUCAAG
B22: consensus (structured_RNA)
RNA: GGUCACGUCUCAAUCAACUCCCAAAGGCCUUUUUCAGGGCCACCCAUCAACAGCUCGCAGUCAAG
B23: consensus (structured_RNA)
RNA: GGUCACGUCUCAAUCAACUCCCAAAGGUCUUUUUCAGGACCACCCAUCAACAGCUCGCAGUCAAG
B24: consensus (structured_RNA)
RNA: GGUCACGUCUCAAUCAACUCCCAAAGGCUCUUCUGAGGGCCACCCAUCAACAGCUCGCAGUCAAG
B25: consensus (structured_RNA)
RNA: GGUCACGUCUCAAUCAACUCCCAAAGGCUUUUCUGAAGGCCACCCAUCAACAGCUCGCAGUCAAG
B26: consensus (structured_RNA)
RNA: GGUCACGUCUCAAUCAACUCCCAAAGGCCUUUUUUAAGGCCACCCAUCAACAGCUCGCAGUCAAG
B27: consensus (structured_RNA)
RNA: GGUCACGUCUCAAUCAACUCCCAAAGGUUCUUUUUAGGGCCACCCAUCAACAGCUCGCAGUCAAG
B28: consensus (structured_RNA)
RNA: GGUCACGUCUCAAUCAACUCCCAAAGGUCUUUUUCAGGGCCACCCAUCAACAGCUCGCAGUCAAG
B29: consensus (structured_RNA)
RNA: GGUCACGUCUCAAUCAACUCCCAAAGGCCUUUCUCAAGGCCACCCAUCAACAGCUCGCAGUCAAG
B30: consensus (structured_RNA)
RNA: GGUCACGUCUCAAUCAACUCCCAAAGGUCUUUCUCAGGACCACCCAUCAACAGCUCGCAGUCAAG
B31: consensus (structured_RNA)
RNA: GGUCACGUCUCAAUCAACUCCCAAAGGCUUUUCUAAGGGCCACCCAUCAACAGCUCGCAGUCAAG
B32: consensus (structured_RNA)
RNA: GGUCACGUCUCAAUCAACUCCCAAAGGCUCUUUUCAGGGCCACCCAUCAACAGCUCGCAGUCAAG
B33: consensus (structured_RNA)
RNA: GGUCACGUCUCAAUCAACUCCCAAAGGUUUUUUUUAAAGCCACCCAUCAACAGCUCGCAGUCAAG
B34: consensus (structured_RNA)
RNA: GGUCACGUCUCAAUCAACUCCCAAAGGUCUUUCUAAGGACCACCCAUCAACAGCUCGCAGUCAAG
B35: consensus (structured_RNA)
RNA: GGUCACGUCUCAAUCAACUCCCAAAGGCCUUUCUCAGGGCCACCCAUCAACAGCUCGCAGUCAAG
B36: consensus (structured_RNA)
RNA: GGUCACGUCUCAAUCAACUCCCAAAGGCUUUUCUCAGGGCCACCCAUCAACAGCUCGCAGUCAAG
B37: consensus (structured_RNA)
RNA: GGUCACGUCUCAAUCAACUCCCAAAGGUCCUUUUCAGGACCACCCAUCAACAGCUCGCAGUCAAG
B38: consensus (structured_RNA)
RNA: GGUCACGUCUCAAUCAACUCCCAAAGGCCUUUCUAAGGGCCACCCAUCAACAGCUCGCAGUCAAG
B39: consensus (structured_RNA)
RNA: GGUCACGUCUCAAUCAACUCCCAAAGGUCUUUUUAAGGACCACCCAUCAACAGCUCGCAGUCAAG
B40: consensus (structured_RNA)
RNA: GGUCACGUCUCAAUCAACUCCCAAAGGCCUUUUUGAGGGCCACCCAUCAACAGCUCGCAGUCAAG
B41: consensus (structured_RNA)
RNA: GGUCACGUCUCAAUCAACUCCCAAAGGCCUUUCUUAGGGCCACCCAUCAACAGCUCGCAGUCAAG
B42: consensus (structured_RNA)
RNA: GGUCACGUCUCAAUCAACUCCCAAAGGUUCUUCUUAGGACCACCCAUCAACAGCUCGCAGUCAAG
B43: consensus (structured_RNA)
RNA: GGUCACGUCUCAAUCAACUCCCAAAGGUUUUUCUGAAAACCACCCAUCAACAGCUCGCAGUCAAG
B44: consensus (structured_RNA)
RNA: GGUCACGUCUCAAUCAACUCCCAAAGGUCUUUCUGAAGGCCACCCAUCAACAGCUCGCAGUCAAG

Molecular target: GST-SBP-SLBP (stem-loop binding protein) (Homo sapiens, UniProt Q14493 1-270)
Test: targeted RNA Bind-n-Seq; RBNS binding buffer: 25 mM Tris pH 7.5, 150 mM KCl, 3 mM MgCl2, 0.1% Tween, 0.5 mg/mL BSA, 1 mM DTT; 27 nM protein, 750 pM RNA pool; temperature not stated; high values mean tight binding
Settings: protein: recombinant; tags: N-terminal GST and SBP (pGEX6P1-SBP)
How it was run: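 The GST-SBP-tagged protein was expressed in Rosetta(DE3) pLysS E. coli, glutathione-purified and incubated at 27 nM with 750 pM of a designed, T7-transcribed RNA oligo pool in RBNS binding buffer. Bound RNA was reverse transcribed with a 10-nucleotide barcoded primer, PCR-amplified and sequenced on a MiSeq with 200-cycle paired-end reads. Reads were joined with FLASH, aligned with HISAT2 and collapsed by barcode. The binding signal is the DEseq log2 fold change of read counts per sequence.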

**Q.** For B1, which binding signal is on record?
**A.** Its binding signal is 3.92 ± 0.166 log2 fold change.

**Q.** B2 was tested. Which binding signal did it give?
**A.** The binding signal was 0.979 ± 0.14 log2 fold change.

**Q.** With B3 as the binder, how does the binding signal read?
**A.** The binding signal was 1.75 ± 0.155 log2 fold change.

**Q.** For B4, which binding signal is on record?
**A.** The binding signal was 1.3 ± 0.179 log2 fold change.

**Q.** For B5, which binding signal is on record?
**A.** The binding signal was 0.935 ± 0.161 log2 fold change.

**Q.** How did the binding signal turn out when B6 was run?
**A.** The binding signal was 1.99 ± 0.171 log2 fold change.

**Q.** How did the binding signal turn out when B7 was run?
**A.** Its binding signal is 3.61 ± 0.128 log2 fold change.

**Q.** How did the binding signal turn out when B8 was run?
**A.** Its binding signal is 2.22 ± 0.14 log2 fold change.

**Q.** With B9 as the binder, how does the binding signal read?
**A.** The binding signal was 1.9 ± 0.154 log2 fold change.

**Q.** For B10, which binding signal is on record?
**A.** Its binding signal is 2.24 ± 0.139 log2 fold change.

**Q.** How did the binding signal turn out when B11 was run?
**A.** Its binding signal is 1.56 ± 0.147 log2 fold change.

**Q.** How did the binding signal turn out when B12 was run?
**A.** The binding signal was 2.28 ± 0.151 log2 fold change.

**Q.** B13 was tested. Which binding signal did it give?
**A.** Its binding signal is 1.97 ± 0.127 log2 fold change.

**Q.** With B14 as the binder, how does the binding signal read?
**A.** Its binding signal is 1.33 ± 0.16 log2 fold change.

**Q.** For B15, which binding signal is on record?
**A.** The binding signal was 2.28 ± 0.146 log2 fold change.

**Q.** Which binding signal does the source give for B16 here?
**A.** Its binding signal is 2.11 ± 0.151 log2 fold change.

**Q.** How did the binding signal turn out when B17 was run?
**A.** The binding signal was 1.64 ± 0.15 log2 fold change.

**Q.** How did the binding signal turn out when B18 was run?
**A.** Its binding signal is 0.994 ± 0.148 log2 fold change.

**Q.** Which binding signal does the source give for B19 here?
**A.** Its binding signal is 1.43 ± 0.177 log2 fold change.

**Q.** B20 was tested. Which binding signal did it give?
**A.** Its binding signal is 1.95 ± 0.161 log2 fold change.

**Q.** Which binding signal does the source give for B21 here?
**A.** The binding signal was 1.09 ± 0.185 log2 fold change.

**Q.** For B22, which binding signal is on record?
**A.** Its binding signal is 2.4 ± 0.137 log2 fold change.

**Q.** B23 was tested. Which binding signal did it give?
**A.** The binding signal was 1.9 ± 0.145 log2 fold change.

**Q.** Which binding signal does the source give for B24 here?
**A.** Its binding signal is 2.28 ± 0.154 log2 fold change.

**Q.** B25 was tested. Which binding signal did it give?
**A.** Its binding signal is 2 ± 0.133 log2 fold change.

**Q.** B26 was tested. Which binding signal did it give?
**A.** The binding signal was 3.59 ± 0.129 log2 fold change.

**Q.** Which binding signal does the source give for B27 here?
**A.** Its binding signal is 2.15 ± 0.148 log2 fold change.

**Q.** Which binding signal does the source give for B28 here?
**A.** The binding signal was 1.25 ± 0.15 log2 fold change.

**Q.** For B29, which binding signal is on record?
**A.** The binding signal was 3.84 ± 0.117 log2 fold change.

**Q.** B30 was tested. Which binding signal did it give?
**A.** Its binding signal is 1.31 ± 0.141 log2 fold change.

**Q.** With B31 as the binder, how does the binding signal read?
**A.** The binding signal was 1.52 ± 0.156 log2 fold change.

**Q.** For B32, which binding signal is on record?
**A.** Its binding signal is 3.57 ± 0.122 log2 fold change.

**Q.** With B33 as the binder, how does the binding signal read?
**A.** The binding signal was 2.23 ± 0.157 log2 fold change.

**Q.** How did the binding signal turn out when B34 was run?
**A.** Its binding signal is 1.6 ± 0.134 log2 fold change.

**Q.** How did the binding signal turn out when B35 was run?
**A.** The binding signal was 1.93 ± 0.129 log2 fold change.

**Q.** B36 was tested. Which binding signal did it give?
**A.** The binding signal was 1.31 ± 0.138 log2 fold change.

**Q.** For B37, which binding signal is on record?
**A.** The binding signal was 3.59 ± 0.127 log2 fold change.

**Q.** For B38, which binding signal is on record?
**A.** The binding signal was 2.22 ± 0.143 log2 fold change.

**Q.** B39 was tested. Which binding signal did it give?
**A.** Its binding signal is 1.91 ± 0.158 log2 fold change.

**Q.** How did the binding signal turn out when B40 was run?
**A.** Its binding signal is 1.42 ± 0.169 log2 fold change.

**Q.** How did the binding signal turn out when B41 was run?
**A.** The binding signal was 1.28 ± 0.157 log2 fold change.

**Q.** For B42, which binding signal is on record?
**A.** Its binding signal is 2.26 ± 0.144 log2 fold change.

**Q.** With B43 as the binder, how does the binding signal read?
**A.** The binding signal was 2.15 ± 0.131 log2 fold change.

**Q.** With B44 as the binder, how does the binding signal read?
**A.** The binding signal was 2.15 ± 0.13 log2 fold change.
